T1: IFN-γ receptor complex (IFN-γR1/EBFP and IFN-γR2/GFP) (Homo sapiens, UniProt P15260)
T1 construct: EBFP (enhanced blue fluorescent protein); expressed in transfected cells; host or cells: COS-1
T1 sequence (P15260 18-489): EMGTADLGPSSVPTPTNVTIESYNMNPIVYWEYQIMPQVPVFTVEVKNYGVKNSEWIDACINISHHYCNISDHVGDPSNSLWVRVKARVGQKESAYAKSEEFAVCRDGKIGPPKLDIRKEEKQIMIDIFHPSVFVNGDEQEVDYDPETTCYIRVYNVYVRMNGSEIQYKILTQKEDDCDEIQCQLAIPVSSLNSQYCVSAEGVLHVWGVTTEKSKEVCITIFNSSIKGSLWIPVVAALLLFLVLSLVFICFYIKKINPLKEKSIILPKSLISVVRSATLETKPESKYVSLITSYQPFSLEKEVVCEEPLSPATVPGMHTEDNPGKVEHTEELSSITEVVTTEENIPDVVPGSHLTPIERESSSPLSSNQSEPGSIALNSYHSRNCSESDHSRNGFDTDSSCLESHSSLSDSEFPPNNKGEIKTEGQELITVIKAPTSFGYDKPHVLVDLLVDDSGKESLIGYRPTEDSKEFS

T2: IFN-γR1/EBFP and IL-10R2/GFP (Homo sapiens, UniProt P15260)
T2 construct: expressed in transfected cells; host or cells: COS-1
T2 sequence (P15260 18-489): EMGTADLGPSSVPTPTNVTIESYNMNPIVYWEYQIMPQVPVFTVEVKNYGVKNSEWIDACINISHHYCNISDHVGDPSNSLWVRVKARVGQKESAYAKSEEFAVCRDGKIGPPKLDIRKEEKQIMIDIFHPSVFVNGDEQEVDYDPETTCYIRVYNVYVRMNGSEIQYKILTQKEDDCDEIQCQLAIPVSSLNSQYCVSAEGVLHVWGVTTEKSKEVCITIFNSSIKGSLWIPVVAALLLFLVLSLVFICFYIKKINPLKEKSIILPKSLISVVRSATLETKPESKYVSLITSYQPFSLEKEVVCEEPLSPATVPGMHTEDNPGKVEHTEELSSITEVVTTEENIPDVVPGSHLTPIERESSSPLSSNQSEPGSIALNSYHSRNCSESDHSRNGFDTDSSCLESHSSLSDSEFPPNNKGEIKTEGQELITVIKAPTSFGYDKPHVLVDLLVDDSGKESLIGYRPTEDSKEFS

T3: IFN-γR2/EBFP, IFN-γR2/GFP and IFN-γR1 chains (Homo sapiens, UniProt P15260)
T3 construct: expressed in transfected cells; host or cells: COS-1
T3 sequence (P15260 18-489): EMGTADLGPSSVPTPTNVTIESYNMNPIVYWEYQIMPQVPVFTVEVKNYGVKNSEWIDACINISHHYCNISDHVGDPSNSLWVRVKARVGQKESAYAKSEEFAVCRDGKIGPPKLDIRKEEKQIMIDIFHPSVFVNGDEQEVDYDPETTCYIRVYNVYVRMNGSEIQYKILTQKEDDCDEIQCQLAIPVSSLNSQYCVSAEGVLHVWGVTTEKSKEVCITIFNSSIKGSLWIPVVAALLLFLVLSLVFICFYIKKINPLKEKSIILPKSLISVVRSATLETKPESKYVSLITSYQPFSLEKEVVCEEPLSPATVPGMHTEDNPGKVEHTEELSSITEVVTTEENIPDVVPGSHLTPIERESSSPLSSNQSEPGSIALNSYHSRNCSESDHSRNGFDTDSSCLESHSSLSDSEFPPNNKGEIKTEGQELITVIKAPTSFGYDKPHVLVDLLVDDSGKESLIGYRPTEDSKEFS


How the values were obtained:
[1] = system: Chinese hamster ovary (CHO) q3 cells; experiment: MHC class I antigen induction in CHO q3 cells transfected with human receptor chains; format: cell-based; conditions: CHO q3 cells with human receptor chains with or without GFP and EBFP; FIG. 3
Text: The human receptor chains (IFN-γR1 and FL-IFN-γR2) without fluorescent proteins (left panel) and those with the fluorescent proteins (IFN-γR1/EBFP and FL-IFN-γR2/GFP) (right panel) were transfected into Chinese hamster ovary (CHO) q3 cells and MHC class I antigen induction measured in response to hamster and human IFN-γ. In the absence of the human receptor chains, Hu-IFN-γ has no effect on CHO cells (78, 87, 98). […] The CHO q3 cells were derived as follows. Hamster UCH-12 cells containing a stable translocation of human chromosome 3q were obtained from Carol Jones and David Patterson. UCH-12 cells were transfected with plasmid pJYI50R1.1 that encodes the intact HLAB7 gene (101) and the resulting cells designated q3. […] The stably transfected population of q3 cells was grown in F12 media supplemented with 10% FBS without selecting antibiotics. […] After three rounds of selection, individual clones were isolated by limiting dilution and amplified. […] MHC class I antigen induction in response to IFN-γ was performed as described (93).
Stable transformants were made in the CHO-derived cell line q3 by the Lipofectin method and limiting dilution clonal isolation.
Images, Spectra and Activity of human IFN-γR2/GFP and IFN-γR1/BFP transfected into COS-1 cells. […]

CHO cells = conditions: absence of the human receptor chains; cited from earlier work
[2] = system: IFN-γR2/EBFP and IFN-γR2/GFP; experiment: FRET between IFN-γR2/EBFP and IFN-γR2/GFP in COS-1 cells without IFN-γR1 chain; format: cell-based, human; conditions: cells expressing only IFN-γR2 chains, no IFN-γR1 chain; FIG. 9 left panels
Text: (§1) FIG. 9 Fluorescence transfer between the FL-IFN-γR2/GFP and FL-IFN-γR2/EBFP chains. Both FL-IFN-γR2/GFP and FL-IFN-γR2/EBFP were transfected into COS-1 cells in the absence (left panels) or presence (right panels) of the unlabeled IFN-γR1 chain. Spectra were taken in the presence and absence of IFN-γ.
(§2) Construction of Vectors to Measure FRET in Cells and Transfections. As noted above, green and blue fluorescent proteins (GFP and BFP) were discovered and developed by a number of groups that enabled these fluorescent protein to be seen and localized in cells; and several groups have begun to use FRET to study the interactions of proteins in cells. In our studies, the IFN-γ receptor complex (FIG. 1) was used as the model system to evaluate the ability of FRET to provide insight into the structure of the receptor and to determine the molecular dynamics after attachment of the ligand IFN-γ to the receptor. In order to carry out these studies, IFN-γR1 and IFN-γR2 chains with BFP (or EBFP) and GFP fused to the carboxyl termini of their intracellular domains were constructed (FIG. 2, top). By fusing the DNA encoding the blue fluorescent protein (BFP) to the DNA encoding the carboxyl terminus of the IFN-γR1 chain and by fusing the DNA encoding GFP to the DNA encoding the carboxyl terminus of the IFN-γR2 chain, the cells produce IFN-γR11/BFP and IFN-γR2/GFP. […]

[3] = target: T1, IFN-γ receptor complex (IFN-γR1/EBFP and IFN-γR2/GFP); experiment: FRET between IFN-γR1/BFP (EBFP) and IFN-γR2/GFP (matched pair) in single live COS-1 cells; format: cell-based
Text: A mammalian expression vector was used to express human interferon γ receptor chains one and two (IFN-γR1 and IFN-γR2) with blue- and green-fluorescent proteins (BFP and GFP) fused to the carboxyl terminus of the chains, respectively. A tandem vector was used so that both chains were expressed in COS-1 cells under the control of the EF-1 promoter. A single cell expressing both of these chains was used to carry out the experiment to examine the effect of human IFN-γ on the distance between the chains and to determine if the chains were associated prior to addition of ligand. This is accomplished by using FRET.
Construction of Vectors to Measure FRET in Cells and Transfections. As noted above, green and blue fluorescent proteins (GFP and BFP) were discovered and developed by a number of groups that enabled these fluorescent protein to be seen and localized in cells; and several groups have begun to use FRET to study the interactions of proteins in cells. In our studies, the IFN-γ receptor complex (FIG. 1) was used as the model system to evaluate the ability of FRET to provide insight into the structure of the receptor and to determine the molecular dynamics after attachment of the ligand IFN-γ to the receptor. […]

[4] = target: T2, IFN-γR1/EBFP and IL-10R2/GFP; experiment: FRET between mismatched receptor pair IFN-γR1/EBFP and IL-10R2/GFP in COS-1 cells; format: cell-based; conditions: two-photon excitation at 760 nm; FIG. 7
Text: as §2, with “IFN-γR2/GFP. In this way, the BFP and GFP were fused to the intracellular domains of IFN-γR1 and IFN-γR2, respectively (FIG. 2), to monitor interactions among these two receptor chains in intact cells-with and-without IFN-γ treatment.” for “IFN-γR2/GFP.”

[5] = target: T3, IFN-γR2/EBFP, IFN-γR2/GFP and IFN-γR1 chains; experiment: FRET between IFN-γR2/EBFP and IFN-γR2/GFP in COS-1 cells with unlabeled IFN-γR1 chain; format: cell-based; conditions: cells expressing IFN-γR2/EBFP, FIG. 9 right panel
Text: as §1, §2

Row | effect on the FRET of the matched receptor pair ([3]; IFN-γ 3500 units/ml added to medium, two-photon excitation at 760 nm, FIG. 8) | FRET signal after treatment of cells with IFN-γ ([3]; single COS-1 cell expressing IFN-γR1 and IFN-γR2 fused to BFP and GFP, excited at 760 nm, FIGS. 12 and 13) | effect on the fluorescence spectrum of the mismatched pair [4] | change in FRET spectrum in the presence of IFN-γ [5] | Molecule | MHC class I antigen induction [1] | effect on CHO cells (CHO cells) | change in FRET spectrum in the presence of IFN-γ [2]
1 | – | – | – | – | IFN-γ: protein secreted by lymphocytes, specifically T-cells and NK-cells; ligand of the IFN-γ receptor complex | as effective as that of hamster IFN-γ | no effect | no change in the spectrum
2 | major reduction in the FRET | almost completely abolished | did not affect the spectrum | large change in the spectrum | IFN-γ: protein secreted by lymphocytes, specifically T-cells and NK-cells; ligand of the IFN-γ receptor complex (protein, UniProt P01579 24-161, looked up) Interferon gamma: QDPYVKEAENLKKYFNAGHSDVADNGTLFLGILKNWKEESDRKIMQSQIVSFYFKLFKNFKDDQSIQKSVETIKEDMNVKFFNSNKKKRDDFEKLTNYSVTDLNVQRKAIHELIQVMAELSPAAKTGKRKRSQMLFRG | – | – | –

Reference: patent US20030044847A1, “Methods for anlyzing interactions between proteins in live and intact cells” (priority 2001, published 2003)
